Target: T1, wild type EPO receptor (EPOR) expressed in DA3(EPOR) cells or 3T3 fibroblasts, P14753
T1 chain: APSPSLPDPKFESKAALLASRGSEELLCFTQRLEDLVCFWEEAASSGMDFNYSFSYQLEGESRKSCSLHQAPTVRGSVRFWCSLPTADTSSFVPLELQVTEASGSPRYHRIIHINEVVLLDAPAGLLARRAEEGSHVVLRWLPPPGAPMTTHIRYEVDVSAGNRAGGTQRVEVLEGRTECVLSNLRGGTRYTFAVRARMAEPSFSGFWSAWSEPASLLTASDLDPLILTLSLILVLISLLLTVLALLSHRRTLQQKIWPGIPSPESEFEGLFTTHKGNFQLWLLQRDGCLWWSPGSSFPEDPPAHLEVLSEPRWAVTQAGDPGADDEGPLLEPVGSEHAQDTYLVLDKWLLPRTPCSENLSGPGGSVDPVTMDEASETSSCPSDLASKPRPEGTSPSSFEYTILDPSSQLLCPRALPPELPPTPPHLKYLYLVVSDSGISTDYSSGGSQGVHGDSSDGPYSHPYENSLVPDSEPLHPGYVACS

B1: murine Jak2 protein tyrosine kinase (protein)
chain: MGMACLTMTEMEATSTSPVHQNGDIPGSANSVKQIEPVLQVYLYHSLGQAEGEYLKFPSGEYVAEEICVAASKACGITPVYHNMFALMSETERIWYPPNHVFHIDESTRHDILYRIRFYFPHWYCSGSSRTYRYGVSRGAEAPLLDDFVMSYLFAQWRHDFVHGWIKVPVTHETQEECLGMAVLDMMRIAKEKDQTPLAVYNSVSYKTFLPKCVRAKIQDYHILTRKRIRYRFRRFIQQFSQCKATARNLKLKYLINLETLQSAFYTEQFEVKESARGPSGEEIFATIIITGNGGIQWSRGKHKESETLTEQDVQLYCDFPDIIDVSIKQANQECSNESRIVTVHKQDGKVLEIELSSLKEALSFVSLIDGYYRLTADAHHYLCKEVAPPAVLENIHSNCHGPISMDFAISKLKKAGNQTGLYVLRCSPKDFNKYFLTFAVERENVIEYKHCLITKNENGEYNLSGTKRNFSNLKDLLNCYQMETVRSDSIIFQFTKCCPPKPKDKSNLLVFRTNGISDVQISPTLQRHNNVNQMVFHKIRNEDLIFNESLGQGTFTKIFKGVRREVGDYGQLHKTEVLLKVLDKAHRNYSESFFEAASMMSQLSHKHLVLNYGVCVCGEENILVQEFVKFGSLDTYLKKNKNSINILWKLGVAKQLAWAMHFLEEKSLIHGNVCAKNILLIREEDRRTGNPPFIKLSDPGISITVLPKDILQERIPWVPPECIENPKNLNLATDKWSFGTTLWEICSGGDKPLSALDSQRKLQFYEDKHQLPAPKWTELANLINNCMDYEPDFRPAFRAVIRDLNSLFTPDYELLTENDMLPNMRIGALGFSGAFEDRDPTQFEERHLKFLQQLGKGNFGSVEMCRYDPLQDNTGEVVAVKKLQHSTEEHLRDFEREIEILKSLQHDNIVKYKGVCYSAGRRNLRLIMEYLPYGSLRDYLQKHKERIDHKKLLQYTSQICKGMEYLGTKRYIHRDLATRNILVENENRVKIGDFGLTKVLPQDKEYYKVKEPGESPIFWYAPESLTESKFSVASDVWSFGVVLYELFTYIEKSKSPPVEFMRMIGNDKQGQMIVFHLIELLKSNGRLPRPEGCPDEIYVIMTECWNNNVSQRPSFRDLSFGWIKSGTV
B1 was tested. Which “EPO-induced tyrosine phosphorylation of Jak2 in 3T3 fibroblasts expressing EPOR (Jak2 immunoprecipitation, 4G10 blot)” value did it give?
The value was “Following stimulation of the cells with EPO, a 130 kDa band, co-migrating with Jak2, was readily detected by a monoclonal antibody against phosphotyrosine (4G10)”.
